Key:
[1] = molecular target: MsyB (Escherichia coli protein MsyB) (E. coli) (UniProt P25738); assay: BLI
[2] = molecular target: MsyB (Escherichia coli protein MsyB) (E. coli) (UniProt P25738); assay: SEC
[3] = molecular target: β-clamp (β subunit of DNA polymerase) (E. coli, UniProt P0A988 1-366); assay: BLI
IHF = molecular target: T1, IHF (E. coli, UniProt P0A6X7 1-99; P0A6Y1 1-94)
T1 sequence (looked up) 1: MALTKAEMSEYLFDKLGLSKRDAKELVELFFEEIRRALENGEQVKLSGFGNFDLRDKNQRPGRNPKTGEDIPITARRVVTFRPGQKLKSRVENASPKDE
T1 sequence (looked up) 2: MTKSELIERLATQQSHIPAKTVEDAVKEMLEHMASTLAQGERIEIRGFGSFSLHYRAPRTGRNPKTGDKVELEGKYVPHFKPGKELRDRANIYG

HUαβ = molecular target: T2, HUαβ (E. coli, UniProt P0ACF0 1-90; P0ACF4 1-90); assay: BLI
T2 sequence (looked up) 1: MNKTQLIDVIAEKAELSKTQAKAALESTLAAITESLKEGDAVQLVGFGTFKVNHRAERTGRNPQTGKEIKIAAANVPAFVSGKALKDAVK
T2 sequence (looked up) 2: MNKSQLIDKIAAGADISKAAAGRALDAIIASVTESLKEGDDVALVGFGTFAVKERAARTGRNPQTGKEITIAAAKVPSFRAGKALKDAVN

[4] = molecular target: HUαα (HU alpha homodimer) (Escherichia coli, UniProt P0ACF0 1-90); assay: EMSA

Chain of β-clamp (β subunit of DNA polymerase) (P0A988 whole entry): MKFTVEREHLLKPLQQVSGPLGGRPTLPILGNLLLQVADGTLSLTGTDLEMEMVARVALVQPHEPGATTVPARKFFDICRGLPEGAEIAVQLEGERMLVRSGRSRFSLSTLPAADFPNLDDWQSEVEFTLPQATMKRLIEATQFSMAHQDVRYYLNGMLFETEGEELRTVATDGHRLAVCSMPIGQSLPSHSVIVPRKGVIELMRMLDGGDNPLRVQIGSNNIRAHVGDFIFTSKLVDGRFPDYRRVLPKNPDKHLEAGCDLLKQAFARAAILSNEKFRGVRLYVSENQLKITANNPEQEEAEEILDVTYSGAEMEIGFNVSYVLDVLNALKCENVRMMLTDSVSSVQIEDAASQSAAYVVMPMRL

HUαα (from UniProt P0ACF0 1-90) (natural protein)
Kd [1]: 4.88 nM
stoichiometry N [2]: 1

β-clamp (β subunit of DNA polymerase) (from UniProt P0A988 1-366) (natural protein)
Kd [1]: 700 nM

B1: HUαα-MsyB complex (complex, E. coli)
chain 1: T2 sequence (looked up) 1
chain 2: MTMYATLEEAIDAAREEFLADNPGIDAEDANVQQFNAQKYVLQDGDIMWQVEFFADEGEEGECLPMLSGEAAQSVFDGDYDEIEIRQEWQEENTLHEWDEGEFQLEPPLDTEEGRAAADEWDER
Kd [3]: 500 nM

B2: MsyB (Escherichia coli protein MsyB) (natural protein, E. coli, UniProt P25738 1-124, looked up)
chain: B1 chain 2
Kd (IHF): 95 nM
Kd (HUαβ): 3.22 nM

B3: dsDNA (DNA1/DNA2), 21 bp (dsDNA)
DNA 1: TGCTTATCAATTTGTTGCACC
DNA 2: GGTGCAACAAATTGATAAGCA
binding result [4]: binds

From publication doi:10.1101/2025.02.25.640118 (bioRxiv, 2025)
